Source: article PMC7211764 (Biochemistry, 2019)

Target: the molecule itself
Test: SEC

B1: A3A H29R (enzyme)
chain: not shown
- stoichiometry N: 2
